Target: T1, MATβV1Δ16, MATβV1 lacking the first 16 amino acids (human, UniProt Q9NZL9 17-334)
T1 construct: MATβV1 (splicing variant 1 of mat2B), human, lacking the first 16 amino acids; Cloned via NcoI and XhoI sites like MATβV1; source: cloned in the HIS-parallel vector
Test: SEC; MATα and MATβ incubated 1 h at 4°C in 50 mM HEPES pH 7.5, 10 mM MgCl2, 50 mM KCl, 300-500 µM NADP; Superdex 200 10/300 in 200 mM NaCl, 25 mM HEPES pH 7.5, 1 mM MgCl2, 5 mM KCl, 1 mM TCEP; also tested for the effect of NADP
Conditions: both partners purified

B1: MATα1, catalytic subunit of methionine adenosyltransferase (mat1A gene) (enzyme)
chain: not shown
notes: MATα1, catalytic subunit encoded by mat1A, human; construct provided by SGC Oxford; His tag cleaved with TEV protease; also called MAT(α1)4; source: E. coli BL21(DE3), purified (nickel resin, HiTrap Q ion exchange, Superdex 200 gel filtration)
binding result: binds
